Laboratory results: article PMC3962104

Molecular target: T1, S. cerevisiae Ump1, C-terminally 6His-tagged (wild type) (S. cerevisiae), P38293
T1 chain: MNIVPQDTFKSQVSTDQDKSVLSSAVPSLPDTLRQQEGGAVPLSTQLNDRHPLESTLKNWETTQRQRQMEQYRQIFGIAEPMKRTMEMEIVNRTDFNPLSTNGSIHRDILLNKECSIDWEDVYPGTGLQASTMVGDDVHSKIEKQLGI
Assay: non-reducing SDS-PAGE; ion-exchange peak fractions loaded in sample buffer without (-) or with (+) 10 mM DTT, 15% SDS-PAGE, Coomassie Blue; the 36 kDa species is seen when no reducing agent is added
Details: remark: other sources report otherwise

B1: S. cerevisiae Ump1, C-terminally 6His-tagged (wild type), P38293 1-148 (natural protein)
chain: MNIVPQDTFKSQVSTDQDKSVLSSAVPSLPDTLRQQEGGAVPLSTQLNDRHPLESTLKNWETTQRQRQMEQYRQIFGIAEPMKRTMEMEIVNRTDFNPLSTNGSIHRDILLNKECSIDWEDVYPGTGLQASTMVGDDVHSKIEKQLGI
stoichiometry N: 2
